# From patent US10280197B2, “Discovery of the first selective C5A receptor 2 (C5L2/C5AR2) ligands” (The Regents of the University of California, priority 2015, dated 2019)
# Legend:
# [1] = Estimated blood concentration after i.v. dose; type: in vivo; details: C57BL/6J, whole blood, intravenous; 3 mg/kg, assuming a blood volume of 2 mL for a 25 g mouse
# Experimental: To further explore the selectivity of the ligands P32 was tested in a mouse model of C5a-induced neutrophil mobilization (FIG. 6). […] Assuming a mouse blood volume of 2 mL for a 25 g mouse, a concentration of 3 mg/kg would result in Cmax blood concentrations of ˜50 uM, a dose within the active range of this compound from our in vitro studies
# [2] = molecular target: T1, human C5a2 (Flp-In CHO-C5a2 membranes) (Homo sapiens, UniProt Q9P296); assay: C5a2 receptor binding, scintillation proximity assay (125I-C5a displacement); details: concentrations up to 1 μM
# T1 construct: expressed in transfected cells
# T1 sequence (Q9P296 whole entry): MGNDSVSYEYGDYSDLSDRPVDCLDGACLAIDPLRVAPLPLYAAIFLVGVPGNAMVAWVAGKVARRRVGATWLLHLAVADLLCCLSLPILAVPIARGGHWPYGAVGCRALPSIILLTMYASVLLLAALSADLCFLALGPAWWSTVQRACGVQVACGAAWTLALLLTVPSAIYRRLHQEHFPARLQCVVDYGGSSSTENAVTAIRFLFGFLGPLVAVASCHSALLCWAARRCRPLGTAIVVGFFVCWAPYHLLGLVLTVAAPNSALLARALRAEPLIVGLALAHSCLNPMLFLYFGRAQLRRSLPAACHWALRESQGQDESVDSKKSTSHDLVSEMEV
# Experimental: Membranes were prepared from Flp-In CHO-05a2 cells by a previously described method^46. Briefly, cells were washed with PBS, pH 7.4, and harvested into buffer (50 mM Tris-HCl, pH 7.4, 5 mM MgCl2, 1 mM CaCl2) before homogenizing with a Polytron homogenizer for 3 min on setting 22. Cells were centrifuged at 150×g for 5 min at 4° C. The supernatant was recovered and centrifuged at 22 000×g for 1 h at 4° C. Membrane pellets were then resuspended in 0.4 mL of ice-cold buffer (50 mM Tris-HCl, pH 7.4, 5 mM MgCl2, 1 mM CaCl2, containing 10% glycerol) with aliquots stored at −80° C. The protein concentration of the membrane preparation was determined by Bradford method^47.
# C5a2 receptor binding studies were performed using a modification of a previously described scintillation proximity assay (SPA) method^48. Briefly, C5a2 SPA studies were performed in 96-well white isoplates with clear flat bottoms (Perkin Elmer, Waltham, Mass., USA). SPA beads (200 μg/well) were added, following the addition of various concentrations of competing ligands or buffer (6 pM to 500 μM) in a total volume of 80 μL of assay buffer (50 mM Tris-HCl, pH 7.4, 0.5% BSA, 5 mM MgCl2, 1 mM CaCl2). ^125I-C5a (˜20 pM) (specific activity, 2200 Ci mmol^−1) (Perkin Elmer) was added to C5a2 membrane preparations (˜2 μg/well). The final reaction volume per well comprised 20 μL of ligand/buffer, 20 μL of SPA beads, 20 μl of membrane and the assay was initiated by the addition of 20 μL of ^125I-C5a. The plate was then sealed using TopSeal-A (Perkin Elmer) sealing film and incubated with shaking for 1 h at room temperature. Radioligand binding was then assessed for 30 s/well using a 1450 Microbeta scintillation counter (Perkin Elmer).
# [3] = system: LPS stimulated HMDM; assay: Cytokine release from LPS stimulated HMDM (ELISA); type: cell-based, human; details: C5a1 antagonist PMX53 10 μM pre-incubated 30 min
# Experimental: FIG. 4 is a panel of graphs showing the testing P32 and P59 for effects on cytokine release from LPS stimulated HMDM. Measurement of human inflammatory cytokines IL-6 (4A, 4B), TNFα (4C, 4D) and IL-10 (4E, 4F) release from HMDM, 24 h after co-stimulation with LPS (10 ngml^−1) and C5a (0.1-100 nM), P32 or P59 (0.1-100 μM) with or without C5a1 antagonist PMX53 (10 μM) present. Cytokine release was quantified by ELISA. Data is representative of five independent HMDM donors performed in triplicate (n=5). CTRL represents non-stimulated HMDM. Data is normalised to LPS response (100%) for each donor. Error bars represent SEM. *P<0.05, ** P<0.01, *** P<0.001, **** P<0.0001 by one-way ANOVA followed by Dunnett's post hoc test or Sidak's post hoc test for comparisons+/−PMX53.
# Briefly, HMDMs were seeded in 96 well tissue culture plates (Nunc) at 100 000 cells/well and allowed to adhere overnight at 37° C. and 5% CO2. The next day HMDMs were stimulated with E. coli derived LPS (10 ng ml^−1) only or LPS (10 ng ml^−1) and either C5a or C5a2 ligands at various concentrations (1-100 nM (C5a) or 0.1-100 μM (C5a2 ligands)). For testing cytokine release in the presence of C5a1 antagonist (PMX53), cells were pre-incubated with PMX53 at 10 μM for 30 min prior to addition of C5a or C5a2 ligands. Following ligand addition HMDMs were returned to 37° C. and 5% CO2 incubator and 24 h after stimulation supernatant was removed from cells and transferred to 96 well polypropylene microplate (Nunc) and stored at −20° C. till needed for assay. Quantification of cytokine release was performed using ELISA kits (BD OptEIA™) as per manufacturers' instructions (BD Biosciences, San Jose, Calif., USA).
# [4] = molecular target: T2, C5a1-C5a2 heteromer (Homo sapiens, UniProt P21730+Q9P296); details: high concentrations of C5a, previously shown; cited from earlier work
# T2 construct: expressed in transfected cells; host or cells: HEK293 (transient)
# T2 sequence (P21730 whole entry): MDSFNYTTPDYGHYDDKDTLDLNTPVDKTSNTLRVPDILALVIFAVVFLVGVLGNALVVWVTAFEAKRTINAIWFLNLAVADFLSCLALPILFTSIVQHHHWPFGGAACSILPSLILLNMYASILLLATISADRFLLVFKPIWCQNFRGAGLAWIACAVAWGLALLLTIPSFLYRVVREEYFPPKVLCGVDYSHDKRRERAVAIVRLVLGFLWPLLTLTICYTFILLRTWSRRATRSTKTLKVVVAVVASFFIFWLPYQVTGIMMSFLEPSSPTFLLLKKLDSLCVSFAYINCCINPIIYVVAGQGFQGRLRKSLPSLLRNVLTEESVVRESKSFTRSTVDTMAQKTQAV
# T2 sequence (Q9P296 whole entry): as the sequence (Q9P296 whole entry) above
# [5] = system: LPS stimulated HMDM; details: literature reference 33; cited from earlier work
# [6] = molecular target: C5a2 (Homo sapiens, UniProt Q9P296); assay: BRET C5a2-β-arrestin 2 recruitment assay in HEK293 cells; type: cell-based; parameters: expressed in transfected cells; host or cells: HEK293 (transient)
# Chain of C5a2 (Q9P296 whole entry): as above
# Chain of C5a2 (P32121 whole entry partner): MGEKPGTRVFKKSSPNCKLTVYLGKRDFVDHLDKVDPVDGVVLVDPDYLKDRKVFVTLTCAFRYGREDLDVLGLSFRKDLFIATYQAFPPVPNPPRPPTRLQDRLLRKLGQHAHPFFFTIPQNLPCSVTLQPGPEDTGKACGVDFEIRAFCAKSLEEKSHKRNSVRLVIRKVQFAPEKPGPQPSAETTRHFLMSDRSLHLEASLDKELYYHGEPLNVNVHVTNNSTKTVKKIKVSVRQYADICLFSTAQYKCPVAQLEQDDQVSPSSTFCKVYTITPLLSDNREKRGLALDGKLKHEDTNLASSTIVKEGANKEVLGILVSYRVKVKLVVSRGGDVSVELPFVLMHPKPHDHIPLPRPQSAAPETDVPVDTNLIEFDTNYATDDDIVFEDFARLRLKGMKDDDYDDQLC
# Experimental: Assays were performed as a ligand-induced BRET experiment similar to previously described^17, 31, 49. In brief, HEK293 cells were transiently transfected with either C5a1-Rluc8 and β-arrestin 2-Venus or C5a2-Venus and β-arrestin 2-Rluc8 or C5a1-Rluc8 and C5a2-Venus in a 100-mm dish. 24 h after transfection cells were collected and transferred to a 96-well white microplate (Corning, N.Y., USA) in phenol-red free DMEM containing 5% FBS and 25 mM HEPES (Life Technologies). Cells were allowed to settle for 24 h and then were incubated with 30 μM Enduren (Promega, Madison, Wis., USA) for 2 h at 37° C. and 5% CO2 to ensure that the substrate had reached equilibrium. Following incubation BRET baseline measurements were taken for 15 min then ligands were added to plate and BRET measurements were taken for a further 1 h at 37° C. using a POLARstar optima microplate reader (BMG Labtech, Ortenberg, Germany). Filtered light emissions were sequentially measured for 1 s in each of the following windows 460-490 nm and 520-550 nm, both before and following ligand addition. The ligand-induced BRET ratio was calculated by subtracting the ratio of 520-550 nm emission over the 460-490 nm emission for a vehicle-treated sample from a ligand-treated sample of the same aliquot of cells in triplicate. The BRET ratio was calculated by subtracting the ratio of 520-550 nm emission over the 460-490 nm emission for a cell sample containing the C5a1-Rluc8 or β-arrestin 2-Rluc8 construct from a cell sample containing both the C5a1-Rluc8 and β-arrestin 2-Venus or C5a2-Venus and β-arrestin 2-Rluc8 or C5a1-Rluc8 and C5a2-Venus constructs. Peptides were also tested for ligand-induced β-arrestin 2 recruitment at 100 μM using DiscoveRx PathHunter kits for human C5a1 and C5a2 (DiscoveRx Corporation. Birmingham, UK), according to the manufacturer's instructions.
molecule,measurement,setting,value
"Ac-RHYPYWR-OH [Peptide P32, Ac-RHYPYWR-OH]",Cmax,[1],~50 µM
"C3a-des Arg: human isolated C3a-des Arg/acylation-stimulating protein (ASP), purchased from Merck Biosciences",displacement of 125I-C5a from Flp-In CHO-C5a2 membrane preparations,[2],do not bind
C3a: human isolated complement protein purchased from Merck Biosciences [Peptide C3a],displacement of 125I-C5a from Flp-In CHO-C5a2 membrane preparations,[2],do not bind
C5a-des Arg: human isolated complement protein purchased from Merck Biosciences (protein) TLQKKIEEIAAKYKHSVVKKCCYDGACVNNDETCEQRAARISLGPRCIKAFTECCVVASQLRANISHKDMQLG,displacement of 125I-C5a from Flp-In CHO-C5a2 membrane preparations,[2],full inhibition
C5a: complement activation peptide; human recombinant C5a purchased from Sino Biologicals (protein) TLQKKIEEIAAKYKHSVVKKCCYDGACVNNDETCEQRAARISLGPRCIKAFTECCVVASQLRANISHKDMQLGR,displacement of 125I-C5a from Flp-In CHO-C5a2 membrane preparations,[2],full inhibition
same,IL-6 release from LPS stimulated HMDM in the presence of PMX53,[3],completely blocked
same,IL-10 release from LPS stimulated HMDM in the presence of PMX53,[3],completely blocked
same,TNFα release from LPS stimulated HMDM in the presence of PMX53,[3],completely blocked
same,up-regulation of heteromer formation between C5a1-C5a2,[4],can up-regulate heteromer formation
same,IL-6 release from LPS stimulated HMDMs,[5],dose-dependently inhibits
same,IL-10 release from LPS stimulated HMDMs,[5],increasing the release
same,TNFα release from LPS stimulated HMDMs,[5],dose-dependently inhibits
same,C5a2-β-arrestin 2 BRET Recruitment (% of C5a),[6],100 % of C5a
same,EC50,[6]; calculated at ~40 min after ligand addition,50.3 ± 4.2 nM
